Experimental data as given in patent EP2112164A1 (Institut Pasteur Of Shanghai, dated 2009).

Assays:
[1] = molecular target: HIV-1 envelope pDOL (subtype B) (HIV-1 (subtype B)); assay: cell-based or functional assay
[2] = molecular target: HIV-1 envelope Q168 (subtype A) (HIV-1 (subtype A)); assay: cell-based or functional assay

B1: scFv/hinge/his-tag/DAF (anti-HIV-1 gp41 scFv derived from human monoclonal antibody TG15, human IgG3 hinge region, 6 x his tag, GPI anchor replacement signal … (scFv)
scFv: QVQLQQWGAGLLKPSETLSLTCAVYGDSFGGHHWSWIRQPPGKGLEWIGEINFLGNTNYNPSLKSRVAISKDTSKNQFSLTLNSATAADTAVYFCARRETMETASRKRAFDIWGQGTMETVTVSAGGGGSGGGGSGGGGSAELMETTQSPPTLSASVGDRVTITCRASQSLSGWVAWYQQKPGKAPKLLIYKASTLESGVPSRFSGSGSGTVFALTISSLQPDDSATYYCQQHSAFSSTFGQGTKLEIKRTPLGDTTHTSGHHHHHHGSGTTSGTTRLLSGHTCFTLTGLLGTLVTMETGLLT
relative luciferase activity (RLA) in a single-cycle pseudotype infectivity assay, CEMss-GPI-scFv compared to CEMss-eGFP [1]: 8 fold reduction
relative luciferase activity (RLA) in a single-cycle pseudotype infectivity assay, CEMss-GPI-scFv compared to CEMss-eGFP [2]: 180 fold reduction
